Test results: PMC8167812 (Cell reports, 2021)

Target: Histone H3 tail peptide H3K9MK14C with a C-terminal biotinylated lysine (fission yeast, C-terminal biotinylated lysine)
Experiment: BLI

B1: Clr4 SET domain (residue 190–490) (domain or fragment)
chain: NPSKLDSYTHLSFYEKRELFRKKLREIEGPEVTLVNEVDDEPCPSLDFQFISQYRLTQGVIPPDPNFQSGCNCSSLGGCDLNNPSRCECLDDLDEPTHFAYDAQGRVRADTGAVIYECNSFCSCSMECPNRVVQRGRTLPLEIFKTKEKGWGVRSLRFAPAGTFITCYLGEVITSAEAAKRDKNYDDDGITYLFDLDMFDDASEYTVDAQNYGDVSRFFNHSCSPNIAIYSAVRNHGFRTIYDLAFFAIKDIQPLEELTFDYAGAKDFSPVQSQKSQQNRISKLRRQCKCGSANCRGWLFG
  t1/2: 9.6 s
